Our source for the liposome co-floatation of DI/II and liposome co-floatation of H244A DI/II values is paper PMC2958806.

Test [1] addresses DENV2 E DI/II protein (E domains I and II, E residues 1-291) (dengue virus 2 (New Guinea C strain)).
In test [2] the target is DENV2 E DI/II H244A (dengue virus 2 (New Guinea C strain)).

In the case of “DENV2 NGC DIII (LDIIIH1CS, E residues 289-430) (domain or fragment)”, in test [1], the liposome co-floatation of DI/II at low pH in the presence of DIII (no co-floatation when BSA was substituted for DIII) stood at 25%.
On to “DENV2 pr peptide (recombinant, prM residues 1-86 with tandem Strep tag) (domain or fragment)”, for which the liposome co-floatation of H244A DI/II at pH 5.75 with DIII, efficiency of floatation in the presence of pr (43% in the absence of pr) in test [2] stood at 47%.
